Assay results: patent publication US20030129189A1, “Tumor necrosis factor-gamma” (priority 1994, published 2003)

Assays:
[1] = target: T1, TNF-gamma-beta (Homo sapiens, UniProt O95150); assay: Coimmunoprecipitation of TNF-gamma-beta by TNFR-Fc proteins; assay type: binding
T1 construct: made in house; host or cells: 293T cells, transient transfection
T1 sequence (O95150 72-251 limits assumed): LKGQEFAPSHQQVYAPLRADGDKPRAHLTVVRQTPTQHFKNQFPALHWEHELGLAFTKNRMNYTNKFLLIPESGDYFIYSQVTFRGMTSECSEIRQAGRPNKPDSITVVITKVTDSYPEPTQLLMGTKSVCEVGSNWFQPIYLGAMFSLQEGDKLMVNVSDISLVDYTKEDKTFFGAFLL
From the text: The beads were then precipitated and washed extensively with PBST buffer (PBS, 0.5% Triton X-100) before boiled in SDS-sample buffer. Proteins were resolved on 4-20% Tris-Glycine gels (NOVEX), transferred to nitrocellulose membranes, and blotted with anti-Flag M2 monoclonal antibody (1 microgram/ml, Sigma) andhorseradish peroxidase (HRP)-conjugated goat anti-mouse IgG antibody (0.5 microgram/ml).

[2] = target: T2, TNF-gamma-beta (Homo sapiens, UniProt O95150); assay: Inhibition of TNF-gamma-beta activation of NF-κB in 293T cells; assay type: cell-based
T2 construct: made in house; host or cells: E. coli (untagged) or 293T (FLAG-tagged)
T2 sequence (O95150 72-251): T1 sequence (O95150 72-251 limits assumed)
Description: To avoid spontaneous apoptosis or NF-κB activation accompanied with DR3 overexpression, a limited amount of DR3-expression DNA that by itself minimally activated these pathways was used.
293T cells were transiently transfected using LipofectAMINE and PLUS reagents according to the manufacturer's instruction (Invitrogen). For reporter assays, 293T cells, at 5×10^5 cells/well, were seeded in 6-well plates and transfected with a total of 1 microgram of DNA. pC4 DNA was used as filler DNA. Conditioned supernatant was collected 24 hr post-transfection and assayed for secreted alkaline phosphatase (SEAP) activity using the Phospha-Light™ chemiluminescent reporter gene assay system (Tropix). pCMV-lacZ was used as internal control for transfection efficiency normalization.

[3] = target: T3, TNF-gamma-beta (Homo sapiens, UniProt O95150); assay: FACS binding of receptor-Fc proteins to cells expressing full length TNF-gamma-beta
T3 construct: expressed in transfected cells
T3 sequence (O95150 1-251): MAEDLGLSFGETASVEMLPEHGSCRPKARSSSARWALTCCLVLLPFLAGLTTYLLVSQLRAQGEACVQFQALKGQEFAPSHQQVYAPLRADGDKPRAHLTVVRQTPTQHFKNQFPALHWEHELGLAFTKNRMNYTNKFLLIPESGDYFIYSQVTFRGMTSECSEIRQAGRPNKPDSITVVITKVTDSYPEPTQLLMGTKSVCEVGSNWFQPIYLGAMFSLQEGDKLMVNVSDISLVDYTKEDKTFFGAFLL
Description: These cells were used to screen the Fc-fusion form of the extracellular domain of TNFR family members, including TNFR1, Fas, HveA, DR3, DR4, DR5, DR6, DcR1, DcR2, TR6, OPG, RANK, AITR, TAC1, CD40, and OX40. […] TR6 has been previously described as a decoy receptor (Pitti et al., Nature 396:699-703 (1998); Yu et al., J. Biol. Chem. 274:13733-6 (1999)) capable of competing with Fas and HveA for binding of FasL and LIGHT, respectively.
Cells resistant to 0.5 mg/ml Genticin (Invitrogen) were selected and expanded. Expression of TNF-gamma-beta mRNA was confirmed by quantitative RT-PCR analysis and surface expression of TNF-gamma-beta protein confirmed by FACS analyses using TNF-gamma-beta monoclonal antibodies.
One million cells, in 0.1 ml of FACS buffer (PBS, 0.1% BSA, 0.1% NaN3), were incubated with 0.1-1 microgram of protein or antibody at RT for 15 min. The cells were washed with 3 ml of FACS buffer, reacted with biotinylated primary antibody, and stained with PE-conjugated secondary antibody at RT for 15 min. Cells were then washed again, resuspended in 0.5 microgram/ml of propidium iodide, and live cells were gated and analyzed on a FACScan using the CellQuest software (BD Biosciences).

[4] = target: T2, TNF-gamma-beta; assay: Inhibition of TNF-gamma-beta-mediated IFNγ secretion from T cells; assay type: cell-based; conditions: costimulated T cells
Description: The extent of the increase in IL-2 receptor expression is consistent with the moderate increase in IL-2 responsiveness compared with IL-2 itself.
1×10^5 cells/ml of purified T cells were seeded in a 24-well tissue culture plate that had been coated with anti-CD3 (0.3 microgram/ml) and anti-CD28 (5.0 microgram/ml) overnight at 4° C. […] ELISA assay for IFNγ, GM-CSF, IL-2 IL-4, IL-10 and TNFα were performed using kits purchased from R & D Systems. Recombinant human IL-2 (5 ng/ml) was used as a positive control. All samples were tested in duplicate and results were expressed as an average of duplicate samples plus or minus error.

[5] = tested on: TNF-gamma on the cell surface; assay: FACS analysis of receptor-ligand binding on cells
Description: Consistent with the Northern blot analysis, peripheral blood mononuclear cells (PBMC) and human umbilical vein endothelial cells (HUVEC) express TNF-gamma on the cell surface by immunostaining with antibody to TNF-gamma. [Cells were collected by trypsinization or aspiration, and centrifuged at 1500-2000 rpm for 5 min. The cell pellets were resuspended and washed in 5 ml ice-cold PBS twice. The cells were incubated for 30 min at […] with antibody (10 mg/ml ) to TNF-gamma to detected expression of TNF-gamma on cell surface, with DR3-Fc or LTbR-Fc (10 mg/ml) for receptor and ligand binding in the binding buffer (HBSS containing 10% BSA, 20 mM HEPES, pH 7.2, 0.02% NaN3). […] Fluorescence was analyzed by a FACscan flow cytometer (Becton Dickinson, Mountain View, Calif.).] […] After incubation at 37° C. for 72 hr, the NF-kB activity was measured with luminometer at absorbance of 450 nm.]
Cells were collected by trypsinization or aspiration, and centrifuged at 1500-2000 rpm for 5 min. […] The cells were incubated for 30 min at 40° C. with antibody (10 mg/ml ) to TNF-gamma to detected expression of TNF-gamma on cell surface, with DR3-Fc or LTbR-Fc (10 mg/ml) for receptor and ligand binding in the binding buffer (HBSS containing 10% BSA, 20 mM HEPES, pH 7.2, 0.02% NaN3). […] Fluorescence was analyzed by a FACscan flow cytometer (Becton Dickinson, Mountain View, Calif.).

[6] = target: T2, TNF-gamma-beta; assay: Inhibition of TNF-gamma-beta induced caspase activation in TF-1 cells; assay type: cell-based; conditions: presence of cycloheximide
Description: Briefly, cells growing in microtiter plates are induced to undergo apoptosis, causing an activation of caspase activities. Equal volume of a caspase substrate (Asp-Glu-Val-Asp-Rhodamine 110, or DEVD-R110) solution is then added and incubated for at least 1 hour. During this incubation, cells are being lysed and free R110 is released from the substrate. The level of free R110 is determined fluorimetrically, using a fluorescence reader with excitation filter 470-500 nm and emission filter 500-560 nm.
A black 96-well plate with a clear bottom is seeded with 75,000 TF-1 cells in RPMI containing 1% fetal bovine serum and micrograms/milliliter cyclohexamide. […] Following the manufacturer's directions, an equal volume of 1×substrate solution containing 50 micromolar DEVD-R110 diluted in incubation buffer is added to each well. The 96-well plates are then incubated for 2 hours after which the plate is read in a fluorescence reader with an excitation filter at 485 nm and an emission filter at 535 nm.
These solutions were then incubated for 1 hour at room temperature.
The reagents were incubated for 1 hour at RT to allow the formation of protein-TNF-gamma-beta complexes and then added to the cells. Caspase activity was measured as described above.

[7] = target: T1, TNF-gamma-beta; assay: Neutralization of TNF-gamma-beta induced SEAP production in TF-1/SRE reporter cells; assay type: cell-based; conditions: TNF-gamma-beta at 200 ng/mL, TF1/SRE reporter cells
Description: Briefly, a poly-D-lysine coated 96-well plate is seeded with TF-1/SRE-SEAP cells (in RPMI+0.2% Fetal bovine serum) at 75,000 cells per well. […] Again cells were incubated overnight. After overnight incubation, conditioned media were collected and SEAP activity was determined using the SEAP Reporter Gene Assay available from Roche Molecular Biochemicals (Indianapolis, Ind.) according to the manufacturer's directions. Briefly, Conditioned media were diluted 1:4 into dilution buffer. Samples were incubated at 65C for 30 minutes to eliminate contaminating AP activity usually present in culture medium. 25 microliters of the heat-inactivated samples were mixed with equal volume of inactivation buffer (containing a mixture of differential alkaline phosphatase inhibitors). Following a 5-minute incubation at room temperature, 50 uL of alkaline phosphatase substrate (CSPD) was added to each well. Chemiluminescence signal was read 10-15 minutes later using a luminometer.
These solutions were then incubated for 1 hour at room temperature. […] After the overnight incubation, the SEAP assay was performed as described above.
The premyeloid cell line TF-1 was stably transfected with SRE/SEAP (Signal Response Element/Secreted Alkaline Phosphatase) reporter plasmid that responds to the SRE signal transduction pathway.

[8] = tested on: adult bovine aortic endothelial (ABAE) cells; assay: In vitro angiogenesis assay (capillary-like tubes on collagen gels); assay type: cell-based; conditions: control
[9] = tested on: WEHI 164 cells; assay: Measurement of apoptosis (nucleosome ELISA); assay type: cell-based, mouse; conditions: increasing amounts (FIG. 12)
Description: In a first incubation step, anti-histone antibody was fixed adsorptively on the wall of a microtiter plate module. Subsequently, non-specific binding sites on the wall were saturated by treatment with incubation buffer (e.g., blocking solution). During the second incubation step, the nucleosomes contained in the WEHI 164 cell sample treated with the TNF-alpha, TNF-beta or bacterially-produced TNF-gamma were bound via their histone components to the immobilized anti-histone antibody. In the third incubation step, anti-DNA-peroxidase (POD) reacted with the DNA component of the nucleosomes. After removal of all unbound peroxidase conjugate by a washing step, the amount of peroxidase retained in the immunocomplex was determined spectrophotometrically using the substrate ABTS (2,2′-azino-di-[3-ethylbenzthiazoline sulfonate]). Anti-histone antibody reacted with the histones H1, H2A, H2B, H3, and H4 from the sample. Anti-DNA POD antibody bound to single- and double-stranded DNA. Therefore, the ELISA allowed the detection of mono- and oligonucleosomes and may be applied to measure apoptotic cell death. The level of cell death was measured by the amount of cytoplasmic histone-associated DNA fragments which was indicated by the ratio of the absorbances observed at 405 and 490 nm (A405/A490). […]

DR3-Fc: recombinant receptor DR3-Fc fusion protein (Fc-extracellular domain of DR3) [reference compound]
immunoprecipitation of TNF-gamma-beta [1]: specifically interacted with FLAG-TNF-gamma-beta
inhibition of TNF-gamma-beta activation of NF-κB [2]: specifically inhibited
binding to cells expressing TNF-gamma-beta (FACS) [3]: bound efficiently
inhibition of TNF-gamma-beta-mediated IFNγ secretion [4]: able to inhibit
binding to HUVEC cells and PBMC ([5]; FACS): also binds to HUVEC cells and PBMC
binding to TNF-gamma-transfected tumor cells (FACS shift) ([5]; MC-38/TNF-gamma cells): indicating cell-surface binding between TNF-gamma and DR3
inhibition of TNF-gamma-beta induced caspase activation [6]: inhibited by either DR3-Fc or TR6-Fc protein

DR3.Fc: extracellular domain of human DR3 (aa 1-199) fused to the Fc domain of human IgG1
neutralization of TNF-gamma-beta SEAP activity by receptor-Fc [7]: interacts with TNF-gamma-beta
immunoprecipitation of TNF-gamma-beta [1]: can be used to immunoprecipitate TNF-gamma-beta
inhibition of TNF-gamma-beta activation of NF-κB [2]: able to inhibit

FGF-2: angiogenic factor FGF-2
EC50 value to stimulate in vitro angiogenesis [8]: about 5 ng/ml
concentration of maximum stimulatory effect on in vitro angiogenesis [8]: 10 ng/mL

B1: TNF-beta: tumor necrosis factor beta (lymphotoxin), control cytokine (protein, UniProt P01374 35-205, looked up)
Lymphotoxin-alpha: LPGVGLTPSAAQTARQHPKMHLAHSTLKPAAHLIGDPSKQNSLLWRANTDRAFLQDGFSLSNNSLLVPTSGIYFVYSQVVFSGKAYSPKATSSPLYLAHEVQLFSSQYPFHVPLLSSQKMVYPGLQEPWLHSMYHGAAFQLTQGDQLSTHTDGIPHLVLSPSTVFFGAFAL
apoptosis (cytoplasmic histone-associated DNA fragments, A405/A490) [9]: also observed in the presence of increasing amounts
